Test results reported in patent US20220177587A1, “METHODS AND USES OF VARIANT CD80 FUSION PROTEINS AND RELATED CONSTRUCTS” (Alpine Immune Sciences, Inc., priority 2018, published 2022).
One block for each molecule: values may come before it.

Key:
CD28 = CD28 (Homo sapiens, UniProt P10747); assay: Flow binding to Jurkat/IL2 reporter cells (CD28); set-up: host or cells: Jurkat cells expressing an IL-2-luciferase reporter
Procedure: Binding of selected immunomodulatory fusion proteins to cognate binding partners was assessed. […] Cells were sorted in a Bio-Rad S3 Cell Sorter (Bio-Rad Corp., USA) to >98% purity. Jurkat/IL2 reporter cells, which endogenously express CD28, were used to detect binding to CD28.
For staining and analysis by flow cytometry, 100,000 cells of appropriate transfected cells were plated in 96-well round bottom plates. Cells were spun down and resuspended in staining buffer (phosphate buffered saline (PBS), 1% bovine serum albumin (BSA), and 0.1% sodium azide) for 20 minutes to block non-specific binding. […] Primary staining was performed on ice for 45 minutes, before washing cells in staining buffer twice. Phycoerythrin (PE)-conjugated anti-human Fc (Jackson ImmunoResearch, USA) was diluted 1:150, added to cells and incubated another 30 minutes on ice. Cells were then washed twice with 150 μL/well stain buffer, fixed in 2% formaldehyde/PBS, and analyzed on Intellicyt flow cytometer (Intellicyt Corp., USA). PE Mean Fluorescence Intensity (MFI) was calculated for each cell type with FlowJo Version 10 software (FlowJo LLC, USA).
Binding assays were carried out to assess the specificity and affinity of multivalent proteins to cell-expressed CTLA-4, CD28, and PD-L1 counter structures.
The EC50 for binding also was determined.

huCTLA4 = huCTLA4 (Homo sapiens, UniProt P16410); assay: Flow binding to CHO cells stably expressing CTLA4; set-up: huCTLA4 and huPD-L1, full-length mammalian surface expression constructs were generated; expressed in transfected cells; host or cells: CHO cells, lentiviral transduction, sorted to >98% purity; conditions: for CTLA4 MFI at 33.3 nM: CHO cells stably expressing CTLA4
huCTLA4, sequence (P16410 36-223): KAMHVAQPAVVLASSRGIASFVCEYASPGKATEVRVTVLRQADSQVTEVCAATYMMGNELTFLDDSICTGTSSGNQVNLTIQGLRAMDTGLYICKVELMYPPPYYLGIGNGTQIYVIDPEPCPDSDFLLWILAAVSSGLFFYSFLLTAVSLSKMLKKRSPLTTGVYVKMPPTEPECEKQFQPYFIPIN
In short: (§1)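 Fusion proteins bound to CHO cells stably expressing CTLA4 or PD-L1, or to Jurkat/IL2 reporter cells with endogenous CD28, for 45 min on ice after blocking in PBS/1% BSA. Detection with PE anti-human Fc by flow cytometry; PE MFI per cell type and binding EC50 determined.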

huPD-L1 = huPD-L1 (Homo sapiens, UniProt Q9NZQ7); assay: Flow binding to CHO cells stably expressing PD-L1; set-up: huCTLA4 and huPD-L1, full-length mammalian surface expression constructs were generated; expressed in transfected cells; host or cells: CHO cells, lentiviral transduction, sorted to >98% purity; conditions: for PD-L1 MFI at 33.3 nM: CHO cells stably expressing PD-L1
huPD-L1, sequence (Q9NZQ7 19-290): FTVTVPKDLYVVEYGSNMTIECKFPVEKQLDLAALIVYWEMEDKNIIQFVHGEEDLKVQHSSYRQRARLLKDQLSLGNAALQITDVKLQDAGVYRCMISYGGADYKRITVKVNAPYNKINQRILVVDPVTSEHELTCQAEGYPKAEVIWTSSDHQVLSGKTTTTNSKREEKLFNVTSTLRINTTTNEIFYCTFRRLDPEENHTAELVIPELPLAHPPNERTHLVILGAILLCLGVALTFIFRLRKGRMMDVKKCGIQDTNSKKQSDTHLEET
In short: as §1

[1] = Table E4, 33.3 nM, Jurkat cells (CD28)
[2] = Table E4, MFI ratio to WT CD80 ECD-Fc (R&D) at 33.3 nM
[3] = Table E4, 33.3 nM variant CD80 IgV-Fc
[4] = Table E4, binding to PD-L1 compared to binding to CD28
[5] = Table E19, Jurkats (CD28), 33.3 nM
[6] = Table E20, Jurkats (CD28), 33.3 nM
[7] = Table E11, 33.3 nM, listed as WT CD80 ECD-Fc = 1.0
[8] = Table E11, Jurkats (CD28), 33.3 nM

- CD28 MFI at 33.3 nM (CD28; [1]): 11736
- CD28 Fold change to WT CD80 (CD28; [2]): 0.65
- CTLA4 MFI at 33.3 nM (huCTLA4; [3]): 807
- CTLA4 Fold change to WT CD80 (huCTLA4; [2]): 0.01
- PD-L1 MFI at 33.3 nM (huPD-L1; Table E4, 33.3 nM): 89775
- PD-L1 Fold change to WT CD80 (huPD-L1; [2]): 7.56
- Ratio of PDL1:CD28 (huPD-L1; [4]): 8
B1: E35D/M47V/N48KN68M/K89N (protein)
chain: VIHVTKEVKEVATLSCGHNVSVEELAQTRIYWQKDKKMVLTMMSGDVKIWPEYKNRTIFDITNNLSIMILALRPSDEGTYECVVLKYENDAFKREHLAEVTLSVKAD

- CD28 MFI at 33.3 nM (CD28; [5]): 91.7
- CTLA4 MFI at 33.3 nM (huCTLA4; Table E19, 33.3 nM): 3288
- PD-L1 MFI at 33.3 nM (huPD-L1; Table E19, 33.3 nM): 347
B2: V68M/L85Q (protein)
chain: VIHVTKEVKEVATLSCGHNVSVEELAQTRIYWQKEKKMVLTMMSGDMNIWPEYKNRTIFDITNNLSIMILALRPSDEGTYECVVQKYEKDAFKREHLAEVTLSVKAD

- CD28 MFI at 33.3 nM (CD28; [5]): 413
- CTLA4 MFI at 33.3 nM (huCTLA4; Table E19, 33.3 nM): 44640
- PD-L1 MFI at 33.3 nM (huPD-L1; Table E19, 33.3 nM): 3083
B3: M47V/N48K (protein)
chain: VIHVTKEVKEVATLSCGHNVSVEELAQTRIYWQKEKKMVLTMMSGDVKIWPEYKNRTIFDITNNLSIVILALRPSDEGTYECVVLKYEKDAFKREHLAEVTLSVKAD

- CD28 MFI at 33.3 nM (CD28; [5]): 170
- CTLA4 MFI at 33.3 nM (huCTLA4; Table E19, 33.3 nM): 4370
B4: N48K/K89N (protein)
chain: VIHVTKEVKEVATLSCGHNVSVEELAQTRIYWQKEKKMVLTMMSGDMKIWPEYKNRTIFDITNNLSIVILALRPSDEGTYECVVLKYENDAFKREHLAEVTLSVKAD

- CD28 MFI at 33.3 nM (CD28; [1]): 400
- CD28 Fold change to WT CD80 (CD28; [2]): 0.02
- CTLA4 MFI at 33.3 nM (huCTLA4; [3]): 246401
- CTLA4 Fold change to WT CD80 (huCTLA4; [2]): 1.57
- PD-L1 MFI at 33.3 nM (huPD-L1; Table E4, 33.3 nM): 19880
- PD-L1 Fold change to WT CD80 (huPD-L1; [2]): 1.67
- Ratio of PDL1:CD28 (huPD-L1; [4]): 50
B5: E35D/L85Q/K93I/E95V/L97Q (protein)
chain: VIHVTKEVKEVATLSCGHNVSVEELAQTRIYWQKDKKMVLTMMSGDMNIWPEYKNRTIFDITNNLSIVILALRPSDEGTYECVVQKYEKDAFTRVHQAEVTLSVKAD

- CD28 MFI at 33.3 nM (CD28; [6]): 2858
- CTLA4 MFI at 33.3 nM (huCTLA4; Table E20, 33.3 nM): 23485
- PD-L1 MFI at 33.3 nM (huPD-L1; Table E20, 33.3 nM): 8933
B6: H18Y/A26E/M47L/D90G (protein)
chain: VIHVTKEVKEVATLSCGYNVSVEELEQTRIYWQKEKKMVLTMMSGDLNIWPEYKNRTIFDITNNLSIVILALRPSDEGTYECVVLKYEKGAFKREHLAEVTLSVKAD

- CD28 MFI at 33.3 nM (CD28; [5]): 60.9
- CTLA4 MFI at 33.3 nM (huCTLA4; Table E19, 33.3 nM): 11134
- PD-L1 MFI at 33.3 nM (huPD-L1; Table E19, 33.3 nM): 4039
B7: M47L/V68M/L85Q (protein)
chain: VIHVTKEVKEVATLSCGHNVSVEELAQTRIYWQKEKKMVLTMMSGDLNIWPEYKNRTIFDITNNLSIMILALRPSDEGTYECVVQKYEKDAFKREHLAEVTLSVKAD

- CD28 MFI at 33.3 nM (CD28; [5]): 159
- CTLA4 MFI at 33.3 nM (huCTLA4; Table E19, 33.3 nM): 28106
- PD-L1 MFI at 33.3 nM (huPD-L1; Table E19, 33.3 nM): 15307
B8: E35D/M47L/V68M/L85Q (protein)
chain: VIHVTKEVKEVATLSCGHNVSVEELAQTRIYWQKDKKMVLTMMSGDLNIWPEYKNRTIFDITNNLSIMILALRPSDEGTYECVVQKYEKDAFKREHLAEVTLSVKAD

- CD28 Fold change to WT CD80 (CD28; [7]): 9.6
- CD28 MFI at 33.3 nM (CD28; [8]): 302
- CTLA4 Fold change to WT CD80 (huCTLA4; [7]): 9.5
- CTLA4 MFI at 33.3 nM (huCTLA4; Table E11, 33.3 nM): 16604
- PD-L1 Fold change to WT CD80 (huPD-L1; [7]): 442.1
- PD-L1 MFI at 33.3 nM (huPD-L1; Table E11, 33.3 nM): 22770
- Ratio of PDL1:CD28 (huPD-L1; Table E11, MFI at 33.3 nM): 75.4
B9: E35D/M47V/N48KN68M/A71G/L85M (protein)
chain: VIHVTKEVKEVATLSCGHNVSVEELAQTRIYWQKDKKMVLTMMSGDVKIWPEYKNRTIFDITNNLSIMILGLRPSDEGTYECVVMKYEKDAFKREHLAEVTLSVKAD

- CD28 MFI at 33.3 nM (CD28; [5]): 35
- CTLA4 MFI at 33.3 nM (huCTLA4; Table E19, 33.3 nM): 3002
B10: L85Q (protein)
chain: VIHVTKEVKEVATLSCGHNVSVEELAQTRIYWQKEKKMVLTMMSGDMNIWPEYKNRTIFDITNNLSIVILALRPSDEGTYECVVQKYEKDAFKREHLAEVTLSVKAD

- CD28 MFI at 33.3 nM (CD28; [6]): 372
- CTLA4 MFI at 33.3 nM (huCTLA4; Table E20, 33.3 nM): 20929
- PD-L1 MFI at 33.3 nM (huPD-L1; Table E20, 33.3 nM): 17904
B11: H18Y/A26E/E35D/V68M (protein)
chain: VIHVTKEVKEVATLSCGYNVSVEELEQTRIYWQKDKKMVLTMMSGDMNIWPEYKNRTIFDITNNLSIMILALRPSDEGTYECVVLKYEKDAFKREHLAEVTLSVKAD

- CD28 MFI at 33.3 nM (CD28; [5]): 60.1
- CTLA4 MFI at 33.3 nM (huCTLA4; Table E19, 33.3 nM): 4952
- PD-L1 MFI at 33.3 nM (huPD-L1; Table E19, 33.3 nM): 481
B12: N48K (protein)
chain: VIHVTKEVKEVATLSCGHNVSVEELAQTRIYWQKEKKMVLTMMSGDMKIWPEYKNRTIFDITNNLSIVILALRPSDEGTYECVVLKYEKDAFKREHLAEVTLSVKAD

- CD28 Fold change to WT CD80 (CD28; [7]): 7.8
- CD28 MFI at 33.3 nM (CD28; [8]): 245
- CTLA4 Fold change to WT CD80 (huCTLA4; [7]): 8.9
- CTLA4 MFI at 33.3 nM (huCTLA4; Table E11, 33.3 nM): 15581
- PD-L1 Fold change to WT CD80 (huPD-L1; [7]): 147.9
- PD-L1 MFI at 33.3 nM (huPD-L1; Table E11, 33.3 nM): 7618
- Ratio of PDL1:CD28 (huPD-L1; Table E11, MFI at 33.3 nM): 31.1
B13: E35D/M47V/N48KN68M/L85M (protein)
chain: VIHVTKEVKEVATLSCGHNVSVEELAQTRIYWQKDKKMVLTMMSGDVKIWPEYKNRTIFDITNNLSIMILALRPSDEGTYECVVMKYEKDAFKREHLAEVTLSVKAD

- CD28 MFI at 33.3 nM (CD28; [5]): 197
- CTLA4 MFI at 33.3 nM (huCTLA4; Table E19, 33.3 nM): 32381
- PD-L1 MFI at 33.3 nM (huPD-L1; Table E19, 33.3 nM): 622
B14: M47V/K89N (protein)
chain: VIHVTKEVKEVATLSCGHNVSVEELAQTRIYWQKEKKMVLTMMSGDVNIWPEYKNRTIFDITNNLSIVILALRPSDEGTYECVVLKYENDAFKREHLAEVTLSVKAD

- CD28 MFI at 33.3 nM (CD28; [5]): 37.9
- CTLA4 MFI at 33.3 nM (huCTLA4; Table E19, 33.3 nM): 568
- PD-L1 MFI at 33.3 nM (huPD-L1; Table E19, 33.3 nM): 118
B15: V68M (protein)
chain: VIHVTKEVKEVATLSCGHNVSVEELAQTRIYWQKEKKMVLTMMSGDMNIWPEYKNRTIFDITNNLSIMILALRPSDEGTYECVVLKYEKDAFKREHLAEVTLSVKAD

- CD28 MFI at 33.3 nM (CD28; [6]): 2583
- CTLA4 MFI at 33.3 nM (huCTLA4; Table E20, 33.3 nM): 21900
- PD-L1 MFI at 33.3 nM (huPD-L1; Table E20, 33.3 nM): 10626
B16: A26E/M47L/V68M/D90G (protein)
chain: VIHVTKEVKEVATLSCGHNVSVEELEQTRIYWQKEKKMVLTMMSGDLNIWPEYKNRTIFDITNNLSIMILALRPSDEGTYECVVLKYEKGAFKREHLAEVTLSVKAD

- CD28 MFI at 33.3 nM (CD28; [5]): 118
- CTLA4 MFI at 33.3 nM (huCTLA4; Table E19, 33.3 nM): 2341
- PD-L1 MFI at 33.3 nM (huPD-L1; Table E19, 33.3 nM): 754
B17: N48K/V68M (protein)
chain: VIHVTKEVKEVATLSCGHNVSVEELAQTRIYWQKEKKMVLTMMSGDMKIWPEYKNRTIFDITNNLSIMILALRPSDEGTYECVVLKYEKDAFKREHLAEVTLSVKAD

- CD28 MFI at 33.3 nM (CD28; [6]): 98.7
- CTLA4 MFI at 33.3 nM (huCTLA4; Table E20, 33.3 nM): 3227
- PD-L1 MFI at 33.3 nM (huPD-L1; Table E20, 33.3 nM): 1667
B18: A26E/M47L/V68M/A71G (protein)
chain: VIHVTKEVKEVATLSCGHNVSVEELEQTRIYWQKEKKMVLTMMSGDLNIWPEYKNRTIFDITNNLSIMILGLRPSDEGTYECVVLKYEKDAFKREHLAEVTLSVKAD
